# Source: US20190233493A1 (Sanofi, published 2019)
# *1 amine or outer side, *2 acyl side, *3 side chain or, on linkers, in order; H or OH if unused. Primed or numbered codes have the meaning given here. Side-chain parts run from the residue outwards. [ ]: non-standard residue; d: D form. The star is where a group is joined. TTDS = 4-[3-[2-[2-(3-aminopropoxy)ethoxy]ethoxy]propylamino]-4-oxo-butanoyl, O=C(CCC(=O)[*:2])NCCCOCCOCCOCCCN[*:1]; TTDS″ = 4-[3-[2-[2-(3-aminopropoxy)ethoxy]ethoxy]propylamino]-4-oxo-butanoyl; PEG12 = NCCOCCOCCOCCOCCOCCOCCOCCOCCOCCOCCOCCOCCC(=O)O; TtdDga = O=C(COCC(=O)[*:2])NCCCOCCOCCOCCCN[*:1]; γGlu = O=C(O)[C@H](CCC(=O)[*:2])N[*:1]; Pentadecanoyl = CCCCCCCCCCCCCCC(=O)*; Stearoyl = CCCCCCCCCCCCCCCCCC(=O)*; Palmitoyl = CCCCCCCCCCCCCCCC(=O)*; Myristoyl = CCCCCCCCCCCCCC(=O)*; αMeK = C[C@](N)(CCCCN)C(=O)O; Nle = CCCC[C@H](N)C(=O)O; PEG2′ = PEG2 spacer unit; Aib = CC(C)(N)C(=O)O
# T1: RXFP1 receptor (UniProt Q9HBX9 1-757, limits assumed)
# T1 sequence (looked up): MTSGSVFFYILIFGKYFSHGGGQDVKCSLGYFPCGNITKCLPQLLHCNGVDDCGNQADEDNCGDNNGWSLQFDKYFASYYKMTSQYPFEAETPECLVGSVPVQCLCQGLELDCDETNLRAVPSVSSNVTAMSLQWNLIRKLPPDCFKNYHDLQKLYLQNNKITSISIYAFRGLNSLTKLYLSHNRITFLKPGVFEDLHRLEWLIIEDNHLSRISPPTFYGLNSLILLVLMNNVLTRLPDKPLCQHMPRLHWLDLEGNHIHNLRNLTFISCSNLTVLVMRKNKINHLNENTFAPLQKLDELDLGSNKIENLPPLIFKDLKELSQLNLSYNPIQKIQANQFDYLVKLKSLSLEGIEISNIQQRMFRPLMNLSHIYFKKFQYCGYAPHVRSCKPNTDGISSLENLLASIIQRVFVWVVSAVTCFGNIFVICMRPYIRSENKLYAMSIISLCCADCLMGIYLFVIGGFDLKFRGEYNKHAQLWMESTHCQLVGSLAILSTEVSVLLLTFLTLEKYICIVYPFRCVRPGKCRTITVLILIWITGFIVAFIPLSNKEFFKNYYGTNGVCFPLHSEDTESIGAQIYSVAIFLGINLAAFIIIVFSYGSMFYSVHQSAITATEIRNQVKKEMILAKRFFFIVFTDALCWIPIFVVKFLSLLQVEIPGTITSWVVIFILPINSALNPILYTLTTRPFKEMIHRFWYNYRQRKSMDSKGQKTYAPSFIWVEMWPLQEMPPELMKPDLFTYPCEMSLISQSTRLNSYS
# B1: peptide of SEQ ID NO: 22 (peptide)
# peptide: Ac-LEGREKVRAQI[Aib][Aib]EG[Nle]STWS[Aib]RKK[PEG12]K([γGlu-Stearoyl])-NH2
# SMILES: CCCCCCCCCCCCCCCCCC(=O)N[C@@H](CCC(=O)NCCCC[C@H](NC(=O)CCOCCOCCOCCOCCOCCOCCOCCOCCOCCOCCOCCOCCNC(=O)[C@H](CCCCN)NC(=O)[C@H](CCCCN)NC(=O)[C@H](CCCNC(=N)N)NC(=O)C(C)(C)NC(=O)[C@H](CO)NC(=O)[C@H](Cc1c[nH]c2ccccc12)NC(=O)[C@@H](NC(=O)[C@H](CO)NC(=O)[C@H](CCCC)NC(=O)CNC(=O)[C@H](CCC(=O)O)NC(=O)C(C)(C)NC(=O)C(C)(C)NC(=O)[C@@H](NC(=O)[C@H](CCC(N)=O)NC(=O)[C@H](C)NC(=O)[C@H](CCCNC(=N)N)NC(=O)[C@@H](NC(=O)[C@H](CCCCN)NC(=O)[C@H](CCC(=O)O)NC(=O)[C@H](CCCNC(=N)N)NC(=O)CNC(=O)[C@H](CCC(=O)O)NC(=O)[C@H](CC(C)C)NC(C)=O)C(C)C)[C@@H](C)CC)[C@@H](C)O)C(N)=O)C(=O)O
# B2: peptide of SEQ ID NO: 187 (peptide)
# peptide: Ac-LEGREKVRAK(Ac)I[Aib][Aib]EG[Nle]STFS[αMeK]RAK(Ac)[TTDS][TTDS][TTDS]K([γGlu-γGlu-γGlu-Palmitoyl])-NH2
# SMILES: CCCCCCCCCCCCCCCC(=O)N[C@@H](CCC(=O)N[C@@H](CCC(=O)N[C@@H](CCC(=O)NCCCC[C@H](NC(=O)CCC(=O)NCCCOCCOCCOCCCNC(=O)CCC(=O)NCCCOCCOCCOCCCNC(=O)CCC(=O)NCCCOCCOCCOCCCNC(=O)[C@H](CCCCNC(C)=O)NC(=O)[C@H](C)NC(=O)[C@H](CCCNC(=N)N)NC(=O)[C@](C)(CCCCN)NC(=O)[C@H](CO)NC(=O)[C@H](Cc1ccccc1)NC(=O)[C@@H](NC(=O)[C@H](CO)NC(=O)[C@H](CCCC)NC(=O)CNC(=O)[C@H](CCC(=O)O)NC(=O)C(C)(C)NC(=O)C(C)(C)NC(=O)[C@@H](NC(=O)[C@H](CCCCNC(C)=O)NC(=O)[C@H](C)NC(=O)[C@H](CCCNC(=N)N)NC(=O)[C@@H](NC(=O)[C@H](CCCCN)NC(=O)[C@H](CCC(=O)O)NC(=O)[C@H](CCCNC(=N)N)NC(=O)CNC(=O)[C@H](CCC(=O)O)NC(=O)[C@H](CC(C)C)NC(C)=O)C(C)C)[C@@H](C)CC)[C@@H](C)O)C(N)=O)C(=O)O)C(=O)O)C(=O)O
# B3: peptide of SEQ ID NO: 189 (peptide)
# peptide: Ac-LEGREKVRAK(Ac)I[Aib][Aib]EGQSTFS[αMeK]RAK(Ac)K([TTDS″-TTDS″-TTDS″-γGlu-γGlu-γGlu-Pentadecanoyl])-NH2
# B4: peptide of SEQ ID NO: 191 (peptide)
# peptide: Ac-LEGREKVRAK(Ac)I[Aib][Aib]EGQSTFS[αMeK]RAK(Ac)K([PEG2′-PEG2′-PEG2′-PEG2′-γGlu-γGlu-γGlu-γGlu-Palmitoyl])-NH2
# B5: peptide of SEQ ID NO: 188 (peptide)
# peptide: Ac-LEGREKVRAK(Ac)I[Aib][Aib]EG[Nle]STFS[αMeK]RAK(Ac)[TTDS][TTDS][TTDS]K([γGlu-γGlu-γGlu-Pentadecanoyl])-NH2
# SMILES: CCCCCCCCCCCCCCC(=O)N[C@@H](CCC(=O)N[C@@H](CCC(=O)N[C@@H](CCC(=O)NCCCC[C@H](NC(=O)CCC(=O)NCCCOCCOCCOCCCNC(=O)CCC(=O)NCCCOCCOCCOCCCNC(=O)CCC(=O)NCCCOCCOCCOCCCNC(=O)[C@H](CCCCNC(C)=O)NC(=O)[C@H](C)NC(=O)[C@H](CCCNC(=N)N)NC(=O)[C@](C)(CCCCN)NC(=O)[C@H](CO)NC(=O)[C@H](Cc1ccccc1)NC(=O)[C@@H](NC(=O)[C@H](CO)NC(=O)[C@H](CCCC)NC(=O)CNC(=O)[C@H](CCC(=O)O)NC(=O)C(C)(C)NC(=O)C(C)(C)NC(=O)[C@@H](NC(=O)[C@H](CCCCNC(C)=O)NC(=O)[C@H](C)NC(=O)[C@H](CCCNC(=N)N)NC(=O)[C@@H](NC(=O)[C@H](CCCCN)NC(=O)[C@H](CCC(=O)O)NC(=O)[C@H](CCCNC(=N)N)NC(=O)CNC(=O)[C@H](CCC(=O)O)NC(=O)[C@H](CC(C)C)NC(C)=O)C(C)C)[C@@H](C)CC)[C@@H](C)O)C(N)=O)C(=O)O)C(=O)O)C(=O)O
# B6: peptide of SEQ ID NO: 190 (peptide)
# peptide: Ac-LEGREKVRAK(Ac)I[Aib][Aib]EGQSTFS[αMeK]RAK(Ac)[PEG2′][PEG2′][PEG2′][PEG2′]K([γGlu-γGlu-γGlu-γGlu-Myristoyl])-NH2
# B7: peptide of SEQ ID NO: 21 (peptide)
# peptide: Ac-LEGREKVRAQI[Aib][Aib]EG[Nle]STWS[Aib]RKK(Ac)[PEG12]K(Stearoyl)-NH2
# SMILES: CCCCCCCCCCCCCCCCCC(=O)NCCCC[C@H](NC(=O)CCOCCOCCOCCOCCOCCOCCOCCOCCOCCOCCOCCOCCNC(=O)[C@H](CCCCNC(C)=O)NC(=O)[C@H](CCCCN)NC(=O)[C@H](CCCNC(=N)N)NC(=O)C(C)(C)NC(=O)[C@H](CO)NC(=O)[C@H](Cc1c[nH]c2ccccc12)NC(=O)[C@@H](NC(=O)[C@H](CO)NC(=O)[C@H](CCCC)NC(=O)CNC(=O)[C@H](CCC(=O)O)NC(=O)C(C)(C)NC(=O)C(C)(C)NC(=O)[C@@H](NC(=O)[C@H](CCC(N)=O)NC(=O)[C@H](C)NC(=O)[C@H](CCCNC(=N)N)NC(=O)[C@@H](NC(=O)[C@H](CCCCN)NC(=O)[C@H](CCC(=O)O)NC(=O)[C@H](CCCNC(=N)N)NC(=O)CNC(=O)[C@H](CCC(=O)O)NC(=O)[C@H](CC(C)C)NC(C)=O)C(C)C)[C@@H](C)CC)[C@@H](C)O)C(N)=O
# B8: peptide of SEQ ID NO: 20 (peptide)
# peptide: Ac-LEGREKVRAK(Ac)I[Aib][Aib]EG[Nle]STWS[Aib]RKK(Ac)[TtdDga][TtdDga][TtdDga]K([γGlu-γGlu-γGlu-Stearoyl])-NH2
# SMILES: CCCCCCCCCCCCCCCCCC(=O)N[C@@H](CCC(=O)N[C@@H](CCC(=O)N[C@@H](CCC(=O)NCCCC[C@H](NC(=O)COCC(=O)NCCCOCCOCCOCCCNC(=O)COCC(=O)NCCCOCCOCCOCCCNC(=O)COCC(=O)NCCCOCCOCCOCCCNC(=O)[C@H](CCCCNC(C)=O)NC(=O)[C@H](CCCCN)NC(=O)[C@H](CCCNC(=N)N)NC(=O)C(C)(C)NC(=O)[C@H](CO)NC(=O)[C@H](Cc1c[nH]c2ccccc12)NC(=O)[C@@H](NC(=O)[C@H](CO)NC(=O)[C@H](CCCC)NC(=O)CNC(=O)[C@H](CCC(=O)O)NC(=O)C(C)(C)NC(=O)C(C)(C)NC(=O)[C@@H](NC(=O)[C@H](CCCCNC(C)=O)NC(=O)[C@H](C)NC(=O)[C@H](CCCNC(=N)N)NC(=O)[C@@H](NC(=O)[C@H](CCCCN)NC(=O)[C@H](CCC(=O)O)NC(=O)[C@H](CCCNC(=N)N)NC(=O)CNC(=O)[C@H](CCC(=O)O)NC(=O)[C@H](CC(C)C)NC(C)=O)C(C)C)[C@@H](C)CC)[C@@H](C)O)C(N)=O)C(=O)O)C(=O)O)C(=O)O
# B9: peptide of SEQ ID NO: 192 (peptide)
# peptide: Ac-LEGREKVRAK(Ac)I[Aib][Aib]EG[Nle]STFS[αMeK]RAK(Ac)[PEG2′][PEG2′][PEG2′][PEG2′]K([γGlu-γGlu-γGlu-Palmitoyl])-NH2
# B10: peptide of SEQ ID NO: 23 (peptide)
# peptide: Ac-LEGREKVRAQI[Aib][Aib]EGMSTWS[Aib]RK[PEG12]K([γGlu-γGlu-γGlu-Palmitoyl])-NH2
# SMILES: CCCCCCCCCCCCCCCC(=O)N[C@@H](CCC(=O)N[C@@H](CCC(=O)N[C@@H](CCC(=O)NCCCC[C@H](NC(=O)CCOCCOCCOCCOCCOCCOCCOCCOCCOCCOCCOCCOCCNC(=O)[C@H](CCCCN)NC(=O)[C@H](CCCNC(=N)N)NC(=O)C(C)(C)NC(=O)[C@H](CO)NC(=O)[C@H](Cc1c[nH]c2ccccc12)NC(=O)[C@@H](NC(=O)[C@H](CO)NC(=O)[C@H](CCSC)NC(=O)CNC(=O)[C@H](CCC(=O)O)NC(=O)C(C)(C)NC(=O)C(C)(C)NC(=O)[C@@H](NC(=O)[C@H](CCC(N)=O)NC(=O)[C@H](C)NC(=O)[C@H](CCCNC(=N)N)NC(=O)[C@@H](NC(=O)[C@H](CCCCN)NC(=O)[C@H](CCC(=O)O)NC(=O)[C@H](CCCNC(=N)N)NC(=O)CNC(=O)[C@H](CCC(=O)O)NC(=O)[C@H](CC(C)C)NC(C)=O)C(C)C)[C@@H](C)CC)[C@@H](C)O)C(N)=O)C(=O)O)C(=O)O)C(=O)O
# Molecular target: T1, RXFP1 receptor
# Test: cell-based or functional assay
"EC50 (nM), OVCAR 5 cells (cAMP) [nM]","EMax, OVCAR 5 cells (cAMP) [%]",Binder
21.4,104,B1
0.33,100,B2
0.42,100,B3
0.17,93,B4
0.75,100,B5
1.29,93,B6
38.6,88,B7
0.45,88,B8
0.62,91,B9
3.62,89,B10
